From publication PMC8795524

T1: SAMD9 134-385 K198E (Homo sapiens, UniProt Q5K651 134-385, K198E)
T1 sequence: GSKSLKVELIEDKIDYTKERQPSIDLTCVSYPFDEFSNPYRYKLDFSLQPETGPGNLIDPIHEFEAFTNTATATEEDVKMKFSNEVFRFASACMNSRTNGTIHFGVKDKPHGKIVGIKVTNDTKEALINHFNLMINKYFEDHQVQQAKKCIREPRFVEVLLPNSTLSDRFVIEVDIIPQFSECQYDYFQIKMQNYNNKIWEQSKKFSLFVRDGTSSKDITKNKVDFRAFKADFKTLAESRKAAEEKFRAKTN

T2: SAMD9 134-385 K257E (Homo sapiens, UniProt Q5K651 134-385, K257E)
T2 sequence: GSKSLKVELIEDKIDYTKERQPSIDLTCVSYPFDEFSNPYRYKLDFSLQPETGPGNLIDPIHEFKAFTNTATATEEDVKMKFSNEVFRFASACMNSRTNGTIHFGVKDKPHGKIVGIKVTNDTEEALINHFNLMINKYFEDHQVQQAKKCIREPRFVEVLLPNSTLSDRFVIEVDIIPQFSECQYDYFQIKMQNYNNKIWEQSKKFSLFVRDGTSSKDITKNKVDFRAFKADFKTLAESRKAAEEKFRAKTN

T3: SAMD9 134-385 R221E (Homo sapiens, UniProt Q5K651 134-385, R221E)
T3 sequence: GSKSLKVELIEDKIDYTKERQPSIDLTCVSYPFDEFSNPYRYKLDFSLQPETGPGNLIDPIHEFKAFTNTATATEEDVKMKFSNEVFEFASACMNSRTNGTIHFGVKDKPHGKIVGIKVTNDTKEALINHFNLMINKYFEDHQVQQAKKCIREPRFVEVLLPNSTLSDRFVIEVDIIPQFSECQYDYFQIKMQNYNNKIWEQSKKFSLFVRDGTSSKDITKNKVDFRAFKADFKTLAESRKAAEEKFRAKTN

T4: SAMD9 134-385 (Homo sapiens, UniProt Q5K651 134-385)
T4 sequence: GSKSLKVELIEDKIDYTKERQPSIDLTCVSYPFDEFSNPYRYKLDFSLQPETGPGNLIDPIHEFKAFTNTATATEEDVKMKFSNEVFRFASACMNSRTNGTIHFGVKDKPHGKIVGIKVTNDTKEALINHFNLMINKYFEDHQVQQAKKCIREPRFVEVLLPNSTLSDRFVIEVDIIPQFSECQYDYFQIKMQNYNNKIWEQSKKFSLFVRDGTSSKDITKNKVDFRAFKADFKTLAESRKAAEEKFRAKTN


Key:
Experiment in all cases: EMSA
SAMD9 134-385 K198E = target: T1, SAMD9 134-385 K198E
SAMD9 134-385 K257E = target: T2, SAMD9 134-385 K257E
SAMD9 134-385 R221E = target: T3, SAMD9 134-385 R221E
SAMD9 134-385 = target: T4, SAMD9 134-385

Binder | binding result (SAMD9 134-385 K198E) | binding result (SAMD9 134-385 K257E) | binding result (SAMD9 134-385 R221E) | binding result (SAMD9 134-385)
5' 6-FAM 22-nt dsDNA (dsDNA) DNA 1: GCAAATTAATGATTTATTCAAG DNA 2: CTTGAATAAATCATTAATTTGC | no binding | binds | no binding | 
11-nt dsDNA (dsDNA) DNA 1: GAGAAAGAGAG DNA 2: CTCTCTTTCTC |  |  |  | no binding
